We go through 24 molecules from patent US10584350B2, “Structurally modified COI1” (Board of Trustees of Michigan State University, priority 2016, dated 2020).

Changes are numbered by the printed parent chain. Names and notes keep the numbering of the source.

The chains are these.
B1: Y386: COI1 alanine substitution mutant at Y386 (protein, UniProt O04197 1-592, looked up, variant Y386A)
Coronatine-insensitive …: MEDPDIKRCKLSCVATVDDVIEQVMTYITDPKDRDSASLVCRRWFKIDSETREHVTMALCYTATPDRLSRRFPNLRSLKLKGKPRAAMFNLIPENWGGYVTPWVTEISNNLRQLKSVHFRRMIVSDLDLDRLAKARADDLETLKLDKCSGFTTDGLLSIVTHCRKIKTLLMEESSFSEKDGKWLHELAQHNTSLEVLNFYMTEFAKISPKDLETIARNCRSLVSVKVGDFEILELVGFFKAAANLEEFCGGSLNEDIGMPEKYMNLVFPRKLCRLGLSYMGPNEMPILFPFAAQIRKLDLLYALLETEDHCTLIQKCPNLEVLETRNVIGDRGLEVLAQYCKQLKRLRIERGADEQGMEDEEGLVSQRGLIALAQGCQELEYMAVAVSDITNESLESIGTYLKNLCDFRLVLLDREERITDLPLDNGVRSLLIGCKKLRRFAFYLRQGGLTDLGLSYIGQYSPNVRWMLLGYVGESDEGLMEFSRGCPNLQKLEMRGCCFSERAIAAAVTKLPSLRYLWVQGYRASMTGQDLMQMARPYWNIELIPSRRVPEVNQQGEIREMEHPAHILAYYSLAGQRTDCPTTVRVLKEPI
B2: V411: COI1 alanine substitution mutant at V411 (protein, UniProt O04197 1-592, looked up, variant V411A)
Coronatine-insensitive …: B1 Coronatine-insensitive … with A386Y, V411A
B3: L91: COI1 alanine substitution mutant at L91 (protein, UniProt O04197 1-592, looked up, variant L91A)
Coronatine-insensitive …: B1 Coronatine-insensitive … with L91A, A386Y
B4: K492: COI1 alanine substitution mutant at K492 (protein, UniProt O04197 1-592, looked up, variant K492A)
Coronatine-insensitive …: B1 Coronatine-insensitive … with A386Y, K492A
B5: R415: COI1 alanine substitution mutant at R415 (protein, UniProt O04197 1-592, looked up, variant R415A)
Coronatine-insensitive …: B1 Coronatine-insensitive … with A386Y, R415A
B6: R348: COI1 alanine substitution mutant at R348 (protein, UniProt O04197 1-592, looked up, variant R348A)
Coronatine-insensitive …: B1 Coronatine-insensitive … with R348A, A386Y
B7: L410: COI1 alanine substitution mutant at L410 (protein, UniProt O04197 1-592, looked up, variant L410A)
Coronatine-insensitive …: B1 Coronatine-insensitive … with A386Y, L410A
B8: L470: COI1 alanine substitution mutant at L470 (protein, UniProt O04197 1-592, looked up, variant L470A)
Coronatine-insensitive …: B1 Coronatine-insensitive … with A386Y, L470A
B9: Y472: COI1 alanine substitution mutant at Y472 (protein, UniProt O04197 1-592, looked up, variant Y472A)
Coronatine-insensitive …: B1 Coronatine-insensitive … with A386Y, Y472A
B10: F443: COI1 alanine substitution mutant at F443 (protein, UniProt O04197 1-592, looked up, variant F443A)
Coronatine-insensitive …: B1 Coronatine-insensitive … with A386Y, F443A
B11: L412: COI1 alanine substitution mutant at L412 (protein, UniProt O04197 1-592, looked up, variant L412A)
Coronatine-insensitive …: B1 Coronatine-insensitive … with A386Y, L412A
B12: Y302A: COI1 alanine substitution mutant at Y302 (protein)
chain: B1 Coronatine-insensitive … with Y302A, A386Y
B13: E173: COI1 alanine substitution mutant at E173 (protein, UniProt O04197 1-592, looked up, variant E173A)
Coronatine-insensitive …: B1 Coronatine-insensitive … with E173A, A386Y
B14: R516: COI1 alanine substitution mutant at R516 (protein, UniProt O04197 1-592, looked up, variant R516A)
Coronatine-insensitive …: B1 Coronatine-insensitive … with A386Y, R516A
B15: L469: COI1 alanine substitution mutant at L469 (protein, UniProt O04197 1-592, looked up, variant L469A)
Coronatine-insensitive …: B1 Coronatine-insensitive … with A386Y, L469A
B16: R440: COI1 alanine substitution mutant at R440 (protein, UniProt O04197 1-592, looked up, variant R440A)
Coronatine-insensitive …: B1 Coronatine-insensitive … with A386Y, R440A
B17: D407: COI1 alanine substitution mutant at D407 (protein, UniProt O04197 1-592, looked up, variant D407A)
Coronatine-insensitive …: B1 Coronatine-insensitive … with A386Y, D407A
B18: Y444A: COI1 alanine substitution mutant at Y444 (protein)
chain: B1 Coronatine-insensitive … with A386Y, Y444A
B19: F89: COI1 alanine substitution mutant at F89 (protein, UniProt O04197 1-592, looked up, variant F89A)
Coronatine-insensitive …: B1 Coronatine-insensitive … with F89A, A386Y
B20: L413: COI1 alanine substitution mutant at L413 (protein, UniProt O04197 1-592, looked up, variant L413A)
Coronatine-insensitive …: B1 Coronatine-insensitive … with A386Y, L413A
B21: Q491: COI1 alanine substitution mutant at Q491 (protein, UniProt O04197 1-592, looked up, variant Q491A)
Coronatine-insensitive …: B1 Coronatine-insensitive … with A386Y, Q491A
B22: R326A: COI1 alanine substitution mutant at R326 (protein)
chain: B1 Coronatine-insensitive … with R326A, A386Y
B23: R121: COI1 alanine substitution mutant at R121 (protein, UniProt O04197 1-592, looked up, variant R121A)
Coronatine-insensitive …: B1 Coronatine-insensitive … with R121A, A386Y
B24: M88: COI1 alanine substitution mutant at M88 (protein, UniProt O04197 1-592, looked up, variant M88A)
Coronatine-insensitive …: B1 Coronatine-insensitive … with M88A, A386Y

One assay relates to COI1-JAZ9 interaction. Kind of assay: Y2H assays on plates for protein-protein interaction. The conditions noted are these: 10 μM COR, yeast. It is filed as cell-based, Arabidopsis. The method, then: Yeast EGY48 strain carrying the p8Op:LacZ reporter plasmid was co-transformed with pGilda:COI1 (or COI1 mutants) and pB42AD:JAZ9 (or other JAZs) (Clontech). Colonies were selected on SD minimal plates (BD Biosciences) supplemented with the—uracil (U)/-tryptophan (W)/-histidine (H) amino acid drop out solution (Clontech). Yeast colonies were cultured overnight in liquid SD-UWH medium, harvested, washed twice in sterile water, and the absorbance (OD600) of the cultures was adjusted to 0.2 in liquid SD galactose/raffinose-UWH medium (BD Biosciences).
For Y2H assays on plates, 10-μL culture was spotted onto SD galactose/raffinose-UWH plates with 80 μg/mL X-gal and 10 μM COR (Sigma-Aldrich). Blue color indicated protein-protein interactions after 5-7 days of incubation at 30° C.
Turning to B1, the “COR-dependent COI1-JAZ9 interaction” value is recorded as “reduced”.
B2: the “COR-dependent COI1-JAZ9 interaction” value was “reduced”.
The same measure, in the same setting: the same measure for B3: “reduced”; for B4: “reduced”.
Same read-out and setting: the same measure for B5: “reduced”; for B6: “reduced”.
As to B7, the “COR-dependent COI1-JAZ9 interaction” value is “reduced”.
Still for that read-out and setting: the entry for B8 is “reduced”; for B9 it is “reduced”; for B10 it is “reduced”.
Consider B11, for which the “COR-dependent COI1-JAZ9 interaction” value is “reduced”.
The same measure, in the same setting: the same measure for B12: “disrupted”.
Same read-out and setting: the same measure for B13: “reduced”; for B14: “reduced”; for B15: “reduced”.
Same read-out and setting: the same measure for B16: “reduced”.
For B17, the “COR-dependent COI1-JAZ9 interaction” value is on record as “reduced”.
Still for that read-out and setting: the same measure for B18: “disrupted”; for B19: “reduced”; for B20: “reduced”.
The same measure, in the same setting: the entry for B21 is “reduced”.
The same measure, in the same setting: the entry for B22 is “disrupted”; for B23 it is “reduced”; for B24 it is “reduced”.

Still in this assay, the particulars now being: 10 μM COR, yeast, listed as R326.
With B22, the “COR-dependent COI1-JAZ9 interaction” value is reported as “reduced”.

Still in this assay, the particulars now being: 10 μM COR, yeast, listed as Y302.
Consider B12, for which the “COR-dependent COI1-JAZ9 interaction” value is “reduced”.

Staying with this assay, now noted: 10 μM COR, yeast, listed as Y444.
In the case of B18, the “COR-dependent COI1-JAZ9 interaction” value is recorded as “reduced”.
